The text below walks through data of article PMC12455930, “LEF-6 phosphorylation regulates the binding and trafficking of baculovirus late gene transcripts”.

One data set has as its target T1, LEF6 1-90 (High Five) (Autographa californica multiple …, UniProt S5G646 1-90).
T1 sequence: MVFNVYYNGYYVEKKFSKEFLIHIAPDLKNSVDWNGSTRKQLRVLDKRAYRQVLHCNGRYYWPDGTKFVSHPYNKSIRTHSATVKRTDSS
Description: EMSA; Anisotropy: 20 mM Tris-HCl pH 7.5, 20 mM NaCl, 5 nM FAM-ssRNA, 28 C; EMSA: 10 mM Tris pH 7.5, 20 mM KCl, 1 mM MgCl2, 1 mM DTT, 20 uM RNA, 22 C, 1% agarose/TAE. Particulars: protein: recombinant; tags: His; label: FAM (anisotropy); EMSA detected by ethidium bromide.

Another data set addresses T2, LEF6 1-90 (E. coli) (Autographa californica multiple …, UniProt S5G646 1-90).
T2 sequence: T1 sequence
The description is as above. Particulars: protein: recombinant; tags: His; label: FAM (anisotropy); EMSA detected by ethidium bromide.

A further data set has as its target T3, LEF6 82-173 (Autographa californica multiple …, UniProt S5G646 82-173).
T3 sequence: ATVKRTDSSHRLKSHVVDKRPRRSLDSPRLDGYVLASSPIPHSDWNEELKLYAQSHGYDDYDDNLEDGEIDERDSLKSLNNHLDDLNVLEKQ
Described as above. Particulars: protein: recombinant; tags: His; label: FAM (anisotropy); EMSA detected by ethidium bromide.

In data set [1] the target is T4, LEF-6 (non-phosphorylated, E. coli) (Autographa californica multiple …, UniProt S5G646 1-173).
T4 sequence: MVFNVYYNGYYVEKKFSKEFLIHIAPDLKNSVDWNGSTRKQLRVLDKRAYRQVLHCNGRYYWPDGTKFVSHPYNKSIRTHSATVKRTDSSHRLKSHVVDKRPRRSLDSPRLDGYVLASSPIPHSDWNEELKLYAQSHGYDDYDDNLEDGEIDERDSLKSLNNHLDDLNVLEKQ
Description: fluorescence anisotropy; Anisotropy: 20 mM Tris-HCl pH 7.5, 20 mM NaCl, 5 nM FAM-ssRNA, 28 C; EMSA: 10 mM Tris pH 7.5, 20 mM KCl, 1 mM MgCl2, 1 mM DTT, 20 uM RNA, 22 C, 1% agarose/TAE. Particulars: protein: recombinant, tags: His.

Data set [2] deals with T5, LEF6 1-90 (host not stated) (Autographa californica multiple …, UniProt S5G646 1-90).
T5 sequence: T1 sequence
The data set is described as above. Particulars: protein: recombinant, tags: His.

The mark [3] stands for this setting: label: FAM (anisotropy), EMSA detected by ethidium bromide.

B1: p6.9 ssRNA (ssRNA)
RNA: GACAGGUCGCCGAAGUUACAGAACACG
As for B1, the binding result is reported as “binds” in the data set with LEF6 1-90 (High Five); “binds” with LEF6 1-90 (E. coli); “no binding” with LEF6 82-173; “binds” in data set [1] (setting [3]); “binds” in data set [2] (setting [3]).

B2: unrelated ssRNA (ssRNA)
RNA: UUUUUUUUUUCUCUGCUCGACG
For the molecule B2, the binding result in data set [1] (label: FAM) and in data set [2] (label: FAM) was “binds” each time.

B3: p10 ssRNA (ssRNA)
RNA: CGGUUUGCCCGCUCAAUUGACCGAUCU
For the molecule B3, the binding result in data set [1] (setting [3]) and in data set [2] (setting [3]) was “binds” throughout.

B4: ie1 ssRNA (ssRNA)
RNA: UUAUAACCAUCCCACCCCGGAUGGAGC
Regarding B4, the binding result in data set [1] (label: FAM) and in data set [2] (label: FAM) was “binds” throughout.
